Among the data in paper PMC3546355 are Kd, koff and kon values, retold here.

pKd: −log10 of the molar value.

As usually defined, the pKd is the negative decadic logarithm of the Kd, by convention in mol/L. Higher therefore signals a low Kd. The koff is the rate constant with which the complex falls apart. The low end stands for slow dissociation, the high end for fast dissociation. What is called kon is the rate constant with which the complex forms. Low readings indicate slower complex formation, high ones faster complex formation.

This experiment deals with Cry1Aa toxin-binding region of BtR175 (BtR175-TBR) (Bombyx mori) (UniProt Q9XY09). The experiment is described as follows: SPR. In general terms: Surface plasmon resonance follows binding to a sensor surface in real time, without labels.
As for “Cry1Aa loop mutant V^443ELL^446 (from UniProt P0A366 1-1176) (ligand)”, the pKd is 7.69, the koff turned out to be 0.00272 s⁻¹ and the kon worked out at 133000 M⁻¹ s⁻¹.

In the case of “Cry1Aa loop mutant S^371APN^374 (from UniProt P0A366 1-1176) (ligand)”, the pKd is 7.88. Regarding “Cry1Aa loop mutant T^439LRT^442 (from UniProt P0A366 1-1176) (ligand)”, the pKd was 7.98, the koff turned out to be 0.00158 s⁻¹ and the kon worked out at 151000 M⁻¹ s⁻¹. Substance “Cry1Aa loop mutant G^435LVG^438 (from UniProt P0A366 1-1176) (ligand)” showed a pKd of 7.87 and a koff of 0.00559 s⁻¹.

The substance “Cry1Aa loop 3 mutant Q^439PRG^442 (from UniProt P0A366 1-1176) (ligand)” registered a koff of 0.00162 s⁻¹. In turn, “Cry1Aa loop mutant S^435VVG^438 (from UniProt P0A366 1-1176) (ligand)” had a pKd of 7.70 and a koff of 0.00379 s⁻¹.

On to “Cry1Aa loop mutant D^439TGN^442 (from UniProt P0A366 1-1176) (ligand)”, for which the pKd is 7.87 and the koff was determined as 0.00162 s⁻¹. Regarding “Cry1Aa loop mutant P^367RRP^370 (from UniProt P0A366 1-1176) (ligand)”, the pKd is 7.92. The substance “Cry1Aa loop mutant E^439PPA^442 (from UniProt P0A366 1-1176) (ligand)” gave a pKd of 7.94 and a kon of 121000 M⁻¹ s⁻¹. The substance “Cry1Aa loop mutant L^367PRP^370 (from UniProt P0A366 1-1176) (ligand)” had a pKd of 7.88. As to “Cry1Aa loop 3 mutant H^439MPR^442 (from UniProt P0A366 1-1176) (ligand)”, the koff amounted to 0.00105 s⁻¹. Take “Cry1Aa loop mutant I^443VPV^446 (from UniProt P0A366 1-1176) (ligand)”: the pKd was 7.70, the koff is 0.00316 s⁻¹ and the kon stood at 158000 M⁻¹ s⁻¹. “Cry1Aa loop mutant A^310QMA^313 (from UniProt P0A366 1-1176) (ligand)” gave a pKd of 7.80.
